Test results from IntAct's records for PubMed 9045636.

B1: Proto-oncogene tyrosine-protein kinase LCK (Mus musculus), P06240 (parent)
chain: MGCVCSSNPEDDWMENIDVCENCHYPIVPLDSKISLPIRNGSEVRDPLVTYEGSLPPASPLQDNLVIALHSYEPSHDGDLGFEKGEQLRILEQSGEWWKAQSLTTGQEGFIPFNFVAKANSLEPEPWFFKNLSRKDAERQLLAPGNTHGSFLIRESESTAGSFSLSVRDFDQNQGEVVKHYKIRNLDNGGFYISPRITFPGLHDLVRHYTNASDGLCTKLSRPCQTQKPQKPWWEDEWEVPRETLKLVERLGAGQFGEVWMGYYNGHTKVAVKSLKQGSMSPDAFLAEANLMKQLQHPRLVRLYAVVTQEPIYIITEYMENGSLVDFLKTPSGIKLNVNKLLDMAAQIAEGMAFIEEQNYIHRDLRAANILVSDTLSCKIADFGLARLIEDNEYTAREGAKFPIKWTAPEAINYGTFTIKSDVWSFGILLTEIVTHGRIPYPGMTNPEVIQNLERGYRMVRPDNCPEELYHLMMLCWKERPEDRPTFDYLRSVLDDFFTATEGQYQPQP

Variants of: B1
Settings: with khdr1_human KHDRBS1, Q07666
Sequence of khdr1_human KHDRBS1, Q07666 (Q07666 whole entry): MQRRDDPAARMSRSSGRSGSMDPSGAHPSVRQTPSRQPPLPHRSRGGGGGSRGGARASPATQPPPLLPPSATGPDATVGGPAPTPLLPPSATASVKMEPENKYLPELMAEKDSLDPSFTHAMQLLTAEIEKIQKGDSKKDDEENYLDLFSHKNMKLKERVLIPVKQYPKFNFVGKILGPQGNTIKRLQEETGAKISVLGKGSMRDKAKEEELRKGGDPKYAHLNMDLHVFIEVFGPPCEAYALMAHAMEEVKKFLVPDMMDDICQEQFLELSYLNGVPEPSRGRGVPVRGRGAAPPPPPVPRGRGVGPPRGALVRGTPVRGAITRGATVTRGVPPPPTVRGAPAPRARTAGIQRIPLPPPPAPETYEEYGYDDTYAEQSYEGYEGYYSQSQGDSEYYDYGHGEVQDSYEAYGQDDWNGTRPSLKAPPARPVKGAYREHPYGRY
In the case of P112K, the “effect of a mutation on the interaction” value is reported as “decreasing interaction”.

Variants of: B1
Settings: with khdr1_human KHDRBS1, Q07666
Remark: another data set of the same source
In the case of R154K, the “effect of a mutation on the interaction” value is reported as “decreasing interaction”.
